# In US6093692A, “Method and compositions for lipidization of hydrophilic molecules” (The University of Southern California, priority 1997, dated 2000):
# B1: BBIssPal: the palmityl disulfide conjugate of BBI (conjugate, UniProt P01055 40-110, looked up)
# Bowman-Birk type proteinase …: DDESSKPCCDQCACTKSNPPQCRCSDMRLNSCHSACKSCICALSYPAQCFCVDITDFCYEPCKPSEDDKEN
# modifications: palmityl disulfide; 125I
# notes: the palmityl disulfide conjugate of BBI
# Key:
# [1] = parameters: species or system CF-1 mice; settings: mouse, in vivo, iv, 3 mg/kg
# Method: Female CF-1 mice, […], weighing 20-25 g each, with free access to food and water prior to the experiments, were used for the animal experiments. ^125 I-BBI (3 mg/kg), as native-BBI or as BBIssPal or BBIssOleic conjugate, was administered to the animals via the tail vein. At 0.5, 3, and 24 hr post-injection, 3 animals from each experiment group were sacrificed and their blood (200 μl), the kidneys, the lungs, and the liver were removed, rinsed in ice-cold PBS, and assayed for accumulated radioactivity. The weights of the organs were recorded and used to adjust the concentration of the conjugates in the organs.
# [2] = test system: C3H 10T1/2(clone 8) cells; assay: In vitro transformation assay (MCA-induced); format: cell-based
# Method: Transformation assays were carried out using C3H 10T1/2(clone 8) cells according to the published recommendations [Reznikoff, C. A., et al., Cancer. Res., 33:3239-3249 (1973); Reznikoff, C. A., et al., Cancer. Res., 33:3231-3238 (1973)]. Stock cultures of mycoplasma-free cells were maintained by passing 50,000 cells per 75 cm^2 flask every seven days. Using this schedule, the cells were always passed approximately 2 days before reaching confluence. The stock culture was grown in Eagle's basal medium supplemented with 10% FBS, penicillin (100 units), and streptomycin (100 μg) and used for the transformation assays at passages of 9 to 14. The cells were passed by treating the stock cells with trypsin (0.1%) in PBS for 5 min and quenching the trypsin with 5 ml of the medium. This procedure was adapted to minimize spontaneous transformation in the stock cultures and maximize the plating efficiency in the petri dishes. The FBS stock used in the cultures was pre-screened to ensure that the serum was able to support the expression and the growth of the transformed cells.
# For the transformation assays, C3H 10T1/2 cells (1000/dish) were seeded into 60 mm petri dishes and allowed to grow in a humidified 5% CO2 atmosphere in Eagle's basal medium, supplemented with 10% FBS, penicillin (100 units), and streptomycin (100 μg), for 24 hr. Subsequently, the cells were initiated by treatment with 25 μl of the 3-methylcholanthrene (MCA) in acetone stock solution ([…]) to a final concentration of 1 μg/ml of MCA (5 μg/5 ml). The cells were allowed to grow in the presence of the carcinogen or solvent for 24 hr, and the medium in each dish was then replaced with fresh medium containing no carcinogen or solvent. The medium in the dishes was replaced twice per week for the first two weeks of the assay, and thereafter once a week for the remainder four weeks of the assay. In the experiments designed to determine the transformation inhibitory activity of the conjugates, the cells were maintained in the medium containing the conjugates (1 μg/ml) for the first three weeks of the assay; thereafter, the cells were maintained in medium containing no added conjugates.
# Six weeks after the carcinogen treatment, the cells were inspected under a microscope for adherence to the culture dishes and were washed with PBS and then fixed in 100% methanol. The fixed monolayers were then stained with Giemsa stain. Twenty dishes per group were treated in each experiment. In addition to the test groups, all the transformation assays contained at least three other groups: negative control (not treated with carcinogen or solvent), acetone control (treated with 25 μl of acetone), and positive control [treated with MCA (1 μg/ml) in 25 μl of acetone]. The transformed foci (>3 mm in diameter) in the plates were studied under a microscope and classified according to published guidelines as types I, II, or III [Landolph, J. R., Transfomatin assay of established cell lines: Mechanism and Application (ed. Kakunaga, T., and Yamasaki, H.) IARC Scientific Publications, Lyon, France pp. 185-201 (1985)]. Briefly, type III foci were dense, multilayered, basophilic, areas of cell growth which stained to a deep blue color with Giemsa and had rough crisscrossed edges. Type II foci were also dense, multilayered, areas of cell growth, but were stained to a purple color with Giemsa and had smoother, more defined edges compared to Type III foci. Type I foci were not scored in the assay.
# BBI, either as the free protein or in conjugated form to palmitic or oleic acid, was added to the cultures at 1.0 μg/ml for the first three weeks of the transformation assay period starting immediately after the MCA treatment. MCA-treated cells were exposed to 3-methylcholanthrene, dissolved in 25 μl of acetone, at a concentration of 1 μg/ml for 24 hr. Acetone-treated cells were exposed to 25 μl of acetone for 24 hr only. […]
# [3] = test system: C3H 10T1/2 cells; assay: Plating efficiency; format: cell-based
# Method: The plating efficiency (PE) of the cells was also studied in conjunction with each of the transformation assays. To determine the PE of the cells in the different treatment groups, cells (200 cells/dish) were seeded into three 60-mm petri dishes per experiment group and treated in the identical manner as the transformation assay cells. The cells in these assays were terminated at 10 days, fixed with 100% methanol, and stained with giemsa; the colonies of 50 cells or more visible under a microscope were then counted. The plating efficiency is defined as the (number of colonies/number of cells seeded)×100%.
# [4] = format: in vitro ADME, hairless mice
# Method: Freshly-prepared skins from hairless mice were mounted on small rings. To each mounted skin, a 5 μl sample of ^125 I-labeled BBI or BBIssPal at a concentration of 0.5 mg/ml was applied to an area of 0.38 cm^2. Two pieces of skin were used per treatment. The skins were kept at room temperature (23° C.) in a humidified environment. After 30 minutes, the surface of the skins was first rinsed carefully with PBS; subsequently, the skins were unmounted and soaked twice in 100 ml of PBS. The skins were then blotted with filter papers and counted in a gamma counter. The amount of BBI retained on the skins was calculated using the specific radioactivity of the labeled BBI or BBIssPal. The absorption of BBI and BBIssPal into the mouse skins was 0.14 and 1.6 μg/cm^2, respectively.
# [5] = MCA 1 μg/ml 24 hr, conjugates 1.0 μg/ml first three weeks, scored at six weeks
molecule,measurement,setting,value
B1,Blood levels and removal from circulation,[1],accumulated in the blood at a relatively high level
same,Kidney accumulation,[1],BBIssPal was not
same,"Kidney clearance, fold lower than native-BBI",[1],about 4 fold
same,"Liver accumulation, fold higher than BBI",[1],approximately 5 fold
same,"Lung accumulation/levels, fold higher than BBI",[1],approximately 2 fold
same,Retention in the liver,[1],remained high in the liver even at 24 hr post-injection
same,Retention of anti-transformation activity of BBI,[2]; 1.0 μg/ml,retained the original biological activity of BBI
same,Transformed foci,"[2]; MCA 1 μg/ml 24 hr, conjugates 1.0 μg/ml first three weeks",one type II focus out of the 20 dishes
same,Fraction of dishes containing transformed foci,[2]; [5],0.05
same,No. of dishes with transformed foci/No. of dishes,[2]; [5],1/20
same,Plating Efficiency,[3],23 ± 3.0%
same,Increase of BBI absorption into the skin,[4],more than 10 fold
